According to patent US8840891 (RSR, dated 2014):
Like-named read-outs stand apart in the source and are kept apart here.

How the values were obtained:
[1] = molecular target: wild type human TSHR (human) (UniProt P16473); test: cell-based or functional assay
[2] = molecular target: TSHR with Lys183 mutated to Aspartic acid (human) (UniProt P16473); test: cell-based or functional assay
[3] = molecular target: TSHR with Asp151 mutated to Arginine (human) (UniProt P16473); test: cell-based or functional assay
[4] = molecular target: wild type human TSHR (human) (UniProt P16473); test: cell-based or functional assay; remark: listed apart in the source
[5] = molecular target: wild type human TSHR (human) (UniProt P16473); test: cell-based or functional assay; remark: listed apart in the source
[6] = molecular target: TSHR with Asp160 mutated to Lysine (human) (UniProt P16473); test: cell-based or functional assay
[7] = molecular target: wild type human TSHR (thyrotropin receptor) expressed on CHO cells (human) (UniProt P16473); test: cell-based or functional assay
[8] = molecular target: TSHR with Arg274 mutated to Alanine expressed on CHO cells (human) (UniProt P16473); test: cell-based or functional assay
[9] = molecular target: TSHR coated onto tubes (TSHR coated tubes) (human) (UniProt P16473); test: TSHR coated tubes, in presence of HBD pool
[10] = molecular target: human TSHR, wild type, expressed on CHO cells (human) (UniProt P16473); test: cell-based or functional assay
[11] = molecular target: TSHR with Phe130 mutated to Alanine expressed on CHO cells (human) (UniProt P16473); test: cell-based or functional assay
[12] = molecular target: wild type human TSHR (thyrotropin receptor) expressed on CHO cells (human) (UniProt P16473); test: cell-based or functional assay; remark: listed apart in the source

Molecule: 5C9 IgG (antibody)
- cyclic AMP; 5C9 0.01 µg/mL + TSH (fmol/cell well) [1]: 12900
- cyclic AMP; 5C9 0.1 µg/mL + TSH (fmol/cell well) [1]: 8580
- cyclic AMP; 5C9 1.0 µg/mL + TSH (fmol/cell well) [1]: 3420
- cyclic AMP; 5C9 10 µg/mL + TSH (fmol/cell well) [1]: 1110
- cyclic AMP; 5C9 100 µg/mL + TSH (fmol/cell well) [1]: 1720
- cyclic AMP; 5C9 100 µg/mL only (fmol/cell well) [1]: < 12.5
- Mutated/wild type (%); 5C9 0.01 µg/mL + TSH [2]: 160%
- Mutated/wild type (%); 5C9 0.1 µg/mL + TSH [2]: 202%
- Mutated/wild type (%); 5C9 1.0 µg/mL + TSH [2]: 370%
- Mutated/wild type (%); 5C9 10 µg/mL + TSH [2]: 591%
- Mutated/wild type (%); 5C9 100 µg/mL + TSH [2]: 524%
- cyclic AMP; 5C9 0.01 µg/mL + TSH (fmol/cell well) [2]: 20600
- cyclic AMP; 5C9 0.1 µg/mL + TSH (fmol/cell well) [2]: 17300
- cyclic AMP; 5C9 1.0 µg/mL + TSH (fmol/cell well) [2]: 12700
- cyclic AMP; 5C9 10 µg/mL + TSH (fmol/cell well) [2]: 6590
- cyclic AMP; 5C9 100 µg/mL + TSH (fmol/cell well) [2]: 9010
- cyclic AMP; 5C9 100 µg/mL only (fmol/cell well) [2]: 54
- Mutated/wild type (%); 5C9 0.01 µg/mL + TSH [3]: 148%
- Mutated/wild type (%); 5C9 0.1 µg/mL + TSH [3]: 158%
- Mutated/wild type (%); 5C9 1.0 µg/mL + TSH [3]: 94%
- Mutated/wild type (%); 5C9 10 µg/mL + TSH [3]: 132%
- Mutated/wild type (%); 5C9 100 µg/mL + TSH [3]: 148%
- Mutated/wild type (%); 5C9 100 µg/mL only [3]: 157%
- cyclic AMP; 5C9 0.01 µg/mL + TSH (fmol/cell well) [3]: 18300
- cyclic AMP; 5C9 0.1 µg/mL + TSH (fmol/cell well) [3]: 10600
- cyclic AMP; 5C9 1.0 µg/mL + TSH (fmol/cell well) [3]: 2590
- cyclic AMP; 5C9 10 µg/mL + TSH (fmol/cell well) [3]: 1610
- cyclic AMP; 5C9 100 µg/mL + TSH (fmol/cell well) [3]: 2330
- cyclic AMP; 5C9 100 µg/mL only (fmol/cell well) [3]: 409
- cyclic AMP; 5C9 0.01 µg/mL + TSH (fmol/cell well) [4]: 12400
- cyclic AMP; 5C9 0.1 µg/mL + TSH (fmol/cell well) [4]: 6690
- cyclic AMP; 5C9 1.0 µg/mL + TSH (fmol/cell well) [4]: 2750
- cyclic AMP; 5C9 10 µg/mL + TSH (fmol/cell well) [4]: 1220
- cyclic AMP; 5C9 100 µg/mL + TSH (fmol/cell well) [4]: 1570
- cyclic AMP; 5C9 100 µg/mL only (fmol/cell well) [4]: 260
- cyclic AMP; 5C9 0.01 µg/mL + M22 (fmol/cell well) [5]: 16700
- cyclic AMP; 5C9 0.1 µg/mL + M22 (fmol/cell well) [5]: 9380
- cyclic AMP; 5C9 1.0 µg/mL + M22 (fmol/cell well) [5]: 821
- cyclic AMP; 5C9 10 µg/mL + M22 (fmol/cell well) [5]: 208
- cyclic AMP; 5C9 100 µg/mL + M22 (fmol/cell well) [5]: 301
- cyclic AMP; 5C9 100 µg/mL only (fmol/cell well) [5]: 429
- Mutated/wild type (%); 5C9 0.01 µg/mL + M22 [6]: 91%
- Mutated/wild type (%); 5C9 0.1 µg/mL + M22 [6]: 82%
- Mutated/wild type (%); 5C9 1.0 µg/mL + M22 [6]: 117%
- Mutated/wild type (%); 5C9 10 µg/mL + M22 [6]: 309%
- Mutated/wild type (%); 5C9 100 µg/mL + M22 [6]: 218%
- Mutated/wild type (%); 5C9 100 µg/mL only [6]: 107%
- cyclic AMP; 5C9 0.01 µg/mL + M22 (fmol/cell well) [6]: 15200
- cyclic AMP; 5C9 0.1 µg/mL + M22 (fmol/cell well) [6]: 7700
- cyclic AMP; 5C9 1.0 µg/mL + M22 (fmol/cell well) [6]: 963
- cyclic AMP; 5C9 10 µg/mL + M22 (fmol/cell well) [6]: 642
- cyclic AMP; 5C9 100 µg/mL + M22 (fmol/cell well) [6]: 657
- cyclic AMP; 5C9 100 µg/mL only (fmol/cell well) [6]: 458

B1: 5C9 IgG (human monoclonal autoantibody to the TSHR) (antibody, from another filing, V domains shown)
VH: EVQLVESGGGLIQPGGSLRLSCAASGFTVSSNYMSWVRQAPGKGLEWVSVTYSGGSTSYADSVKGRFTISRDNSKNTLYLQMNSLRAEDTAVYYCARGGRYCSSISCYARSGCDYWGQGTLVTVSS
VL: AIQMTQSPSSLSASVGDRVTITCRASQSISNYLNWYQQKPGKAPKLLIYAASSLQSGVPSRFSGSGSGTDFTLTISSLQPEDFATYYCQQSYSSPSTTFGQGTKLEIK
- Cyclic AMP produced; 5C9 0.01 µg/mL + TSH (fmol/cell well) [7]: 16300
- Cyclic AMP produced; 5C9 0.1 µg/mL + TSH (fmol/cell well) [7]: 5000
- Cyclic AMP produced; 5C9 1.0 µg/mL + TSH (fmol/cell well) [7]: 808
- Cyclic AMP produced; 5C9 10 µg/mL + TSH (fmol/cell well) [7]: 684
- Cyclic AMP produced; 5C9 100 µg/mL + TSH (fmol/cell well) [7]: 246
- Cyclic AMP produced; 5C9 100 µg/mL only (fmol/cell well) [7]: 111
- Cyclic AMP produced; 5C9 0.01 µg/mL + TSH (fmol/cell well) [8]: 9560
- Cyclic AMP produced; 5C9 0.1 µg/mL + TSH (fmol/cell well) [8]: 1320
- Cyclic AMP produced; 5C9 1.0 µg/mL + TSH (fmol/cell well) [8]: 177
- Cyclic AMP produced; 5C9 10 µg/mL + TSH (fmol/cell well) [8]: 108
- Cyclic AMP produced; 5C9 100 µg/mL + TSH (fmol/cell well) [8]: 17
- Cyclic AMP produced; 5C9 100 µg/mL only (fmol/cell well) [8]: 34
- Mutated/wild type (%); 5C9 0.01 µg/mL + TSH [8]: 58%
- Mutated/wild type (%); 5C9 0.1 µg/mL + TSH [8]: 26%
- Mutated/wild type (%); 5C9 1.0 µg/mL + TSH [8]: 22%
- Mutated/wild type (%); 5C9 10 µg/mL + TSH [8]: 16%
- Mutated/wild type (%); 5C9 100 µg/mL + TSH [8]: 7%
- Mutated/wild type (%); 5C9 100 µg/mL only [8]: 31%
- % binding of labelled tracer [9]: 20%
- cyclic AMP; Exp 1; 5C9 0.01 µg/mL + M22 3 ng/mL [10]: 48.1 pmol/mL
- cyclic AMP; Exp 1; 5C9 0.1 µg/mL + M22 3 ng/mL [10]: 6 pmol/mL
- cyclic AMP; Exp 1; 5C9 1 µg/mL + M22 3 ng/mL [10]: 0.93 pmol/mL
- cyclic AMP; Exp 1; 5C9 10 µg/mL + M22 3 ng/mL [10]: 0.36 pmol/mL
- cyclic AMP; Exp 1; 5C9 100 µg/mL + M22 3 ng/mL [10]: 0.35 pmol/mL
- cyclic AMP; Exp 1; 5C9 100 µg/mL only [10]: 0.35 pmol/mL
- cyclic AMP; Exp 2; 5C9 0.001 µg/mL + M22 3 ng/mL [10]: 63.3 pmol/mL
- cyclic AMP; Exp 2; 5C9 0.01 µg/mL + M22 3 ng/mL [10]: 57.3 pmol/mL
- cyclic AMP; Exp 2; 5C9 0.1 µg/mL + M22 3 ng/mL [10]: 4.17 pmol/mL
- cyclic AMP; Exp 2; 5C9 10 µg/mL + M22 3 ng/mL [10]: 0.14 pmol/mL
- cyclic AMP; Exp 2; 5C9 100 µg/mL only [10]: 0.69 pmol/mL
- cyclic AMP; Exp 2; 5C9 + M22 3 ng/mL [10]: 2.54 pmol/mL
- cyclic AMP; Exp 3; 5C9 0.001 µg/mL + M22 0.3 ng/mL [10]: 13.3 pmol/mL
- cyclic AMP; Exp 3; 5C9 0.01 µg/mL + M22 0.3 ng/mL [10]: 13.1 pmol/mL
- cyclic AMP; Exp 3; 5C9 0.1 µg/mL + M22 0.3 ng/mL [10]: 1.43 pmol/mL
- cyclic AMP; Exp 3; 5C9 1 µg/mL + M22 0.3 ng/mL [10]: 0.02 pmol/mL
- cyclic AMP; Exp 3; 5C9 10 µg/mL + M22 0.3 ng/mL [10]: 0.2 pmol/mL
- cyclic AMP; Exp 3; 5C9 100 µg/mL + M22 0.3 ng/mL [10]: 0.05 pmol/mL
- cyclic AMP; Exp 3; 5C9 100 µg/mL only [10]: 0.58 pmol/mL
- cyclic AMP; Exp 4; 5C9 0.001 µg/mL + M22 0.3 ng/mL [10]: 33.1 pmol/mL
- cyclic AMP; Exp 4; 5C9 0.01 µg/mL + M22 0.3 ng/mL [10]: 31.5 pmol/mL
- cyclic AMP; Exp 4; 5C9 0.1 µg/mL + M22 0.3 ng/mL [10]: 6 pmol/mL
- cyclic AMP; Exp 4; 5C9 1 µg/mL + M22 0.3 ng/mL [10]: 0.21 pmol/mL
- cyclic AMP; Exp 4; 5C9 10 µg/mL + M22 0.3 ng/mL [10]: 0.4 pmol/mL
- cyclic AMP; Exp 4; 5C9 100 µg/mL + M22 0.3 ng/mL [10]: 0.22 pmol/mL
- cyclic AMP; Exp 4; 5C9 100 µg/mL only [10]: 0.12 pmol/mL
- Cyclic AMP produced; 5C9 0.01 µg/mL + TSH (fmol/cell well) [11]: 17400
- Cyclic AMP produced; 5C9 0.1 µg/mL + TSH (fmol/cell well) [11]: 9020
- Cyclic AMP produced; 5C9 1.0 µg/mL + TSH (fmol/cell well) [11]: 2240
- Cyclic AMP produced; 5C9 10 µg/mL + TSH (fmol/cell well) [11]: 1140
- Cyclic AMP produced; 5C9 100 µg/mL + TSH (fmol/cell well) [11]: 603
- Cyclic AMP produced; 5C9 100 µg/mL only (fmol/cell well) [11]: 446
- Mutated/wild type (%); 5C9 0.01 µg/mL + TSH [11]: 114%
- Mutated/wild type (%); 5C9 0.1 µg/mL + TSH [11]: 332%
- Mutated/wild type (%); 5C9 1.0 µg/mL + TSH [11]: 562%
- Mutated/wild type (%); 5C9 10 µg/mL + TSH [11]: 754%
- Mutated/wild type (%); 5C9 100 µg/mL + TSH [11]: 251%
- Mutated/wild type (%); 5C9 100 µg/mL only [11]: 134%
- Cyclic AMP produced; 5C9 0.01 µg/mL + TSH (fmol/cell well) [12]: 15300
- Cyclic AMP produced; 5C9 0.1 µg/mL + TSH (fmol/cell well) [12]: 2710
- Cyclic AMP produced; 5C9 1.0 µg/mL + TSH (fmol/cell well) [12]: 398
- Cyclic AMP produced; 5C9 10 µg/mL + TSH (fmol/cell well) [12]: 151
- Cyclic AMP produced; 5C9 100 µg/mL + TSH (fmol/cell well) [12]: 240
- Cyclic AMP produced; 5C9 100 µg/mL only (fmol/cell well) [12]: 334
